# According to the Human Domainome abundance scans (Beltran et al. 2025):
# ± gives the uncertainty stated by the source.
# B1: Ras GTPase-activating protein 1, residues 281 to 341; numbered along this chain, P20936 (parent)
# chain: RRRVRAILPYTKVPDTDEISFLKGDMFIVHNELEDGWMWVTNLRTDEQGLIVEDLVEEVGR
# Variants of: B1
# Experiment: abundance fitness (aPCA) (normalised: wild type 0, dead -1); higher = more abundant; growth selection in yeast, the domain comes from the species named
# Conditions: Homo sapiens
row,Variant,abundance fitness
1,RRRVRAILPYTKVPDTDEISFLKGDYFIVHNELEDGWMWVTNLRTDEQGLIVEDLVEEVGR,-0.028 ± 0.029
2,RRRVRAIEPYTKVPDTDEISFLKGDMFIVHNELEDGWMWVTNLRTDEQGLIVEDLVEEVGR,-0.067 ± 0.062
3,RRRVRAILPYTKVPDTDEISFLKGDMFIVHNEDEDGWMWVTNLRTDEQGLIVEDLVEEVGR,-0.182 ± 0.03
4,RRRVRAILPYTKVPDTDEISFLKGDMFIVHNELEDGWMWVTNLRTDEQGLIVEDLVVEVGR,-0.107 ± 0.035
5,RRRVRAILPYTKVPDTDEFSFLKGDMFIVHNELEDGWMWVTNLRTDEQGLIVEDLVEEVGR,-0.943 ± 0.061
6,RRRVRAILPYTKVPDTDEISFLKGDMFIVHNELEDGWMWVTNDRTDEQGLIVEDLVEEVGR,-0.422 ± 0.04
7,RRRVRAILPYFKVPDTDEISFLKGDMFIVHNELEDGWMWVTNLRTDEQGLIVEDLVEEVGR,-0.184 ± 0.026
8,RRRVRAILPYTKVPDTDEISFLKGDMFIVHNELEDGWMWVTNLRTDEQGLIVEDLVEWVGR,-0.106 ± 0.061
9,RRRVRAILPYTKVPDTDEISFLKGDMFIVHNELEDGWMWVTNLRTDLQGLIVEDLVEEVGR,-0.417 ± 0.03
10,RRRVRAILPYTKVPDTDEISFLKGDMFIVHNELEDGWMWVTNLRTDEQGLIVEDLWEEVGR,-0.844 ± 0.086
11,RRRVRAILPYTKVPDTDEISFLKGDMFIVHNELEDGWMWVTNLRTDEQGLIVEDLVEEWGR,-0.137 ± 0.052
12,RRRVRAILPYTKVPDTDEISFLIGDMFIVHNELEDGWMWVTNLRTDEQGLIVEDLVEEVGR,-0.148 ± 0.021
13,RRRVRAILPYLKVPDTDEISFLKGDMFIVHNELEDGWMWVTNLRTDEQGLIVEDLVEEVGR,-0.169 ± 0.028
14,RRRVRAILPYTKVPDTDEISFLKGDMFIVHNRLEDGWMWVTNLRTDEQGLIVEDLVEEVGR,-0.053 ± 0.033
15,RRRVRAGLPYTKVPDTDEISFLKGDMFIVHNELEDGWMWVTNLRTDEQGLIVEDLVEEVGR,-0.735 ± 0.044
16,RRRVRAILPYTKVPDTDEISFLKGDMFIVHNELEDGWMWVTNLRTDEQGLIVEDLVREVGR,-0.197 ± 0.043
17,RRRVRAILPYTMVPDTDEISFLKGDMFIVHNELEDGWMWVTNLRTDEQGLIVEDLVEEVGR,-0.188 ± 0.053
18,RRRVRAILPYTKVPDTDEISFLKGDMFIVHNELEDGWMWVTNLRTDEQGLIGEDLVEEVGR,0.059 ± 0.024
19,RRRVRAILPYTKVPDTLEISFLKGDMFIVHNELEDGWMWVTNLRTDEQGLIVEDLVEEVGR,-0.065 ± 0.033
20,RRRVRAILPYTKVPDTDEIDFLKGDMFIVHNELEDGWMWVTNLRTDEQGLIVEDLVEEVGR,-0.111 ± 0.029
21,RRRVRAILPYTKVPDTDEISFLKGDMFIVHNELEDGWMWVTNLRTDEQGFIVEDLVEEVGR,-0.126 ± 0.026
22,RRRKRAILPYTKVPDTDEISFLKGDMFIVHNELEDGWMWVTNLRTDEQGLIVEDLVEEVGR,-0.626 ± 0.043

row,Variant,abundance fitness
1,RRRVRAILPYTKVPDTDEISFLEGDMFIVHNELEDGWMWVTNLRTDEQGLIVEDLVEEVGR,0.006 ± 0.041
2,RRRVRAILPYTKVPDTDEDSFLKGDMFIVHNELEDGWMWVTNLRTDEQGLIVEDLVEEVGR,-0.941 ± 0.063
3,RRRVRAILPYTKVPDTDEISFLKGDMFIMHNELEDGWMWVTNLRTDEQGLIVEDLVEEVGR,-0.644 ± 0.1
4,RRRVRAILPYTKVHDTDEISFLKGDMFIVHNELEDGWMWVTNLRTDEQGLIVEDLVEEVGR,-0.146 ± 0.032
5,RRRVRAILPYTKVPDTDEISFLKGDMFIVHNELEDGWMWVTNLRTDEQGLIVEDHVEEVGR,0.059 ± 0.034
6,RRRVRAILPYTKVPDTDEISFLKGDMFIVHNELEDGWMWFTNLRTDEQGLIVEDLVEEVGR,-0.881 ± 0.045
7,RRRVRAILPYEKVPDTDEISFLKGDMFIVHNELEDGWMWVTNLRTDEQGLIVEDLVEEVGR,-0.108 ± 0.089
8,RRRVRAILPYTKVPDTDEISFLKGDMFIVHNYLEDGWMWVTNLRTDEQGLIVEDLVEEVGR,-0.03 ± 0.029
9,RRRVRAILPYTKVPDTDEISFLYGDMFIVHNELEDGWMWVTNLRTDEQGLIVEDLVEEVGR,-0.269 ± 0.023
10,RRRVRCILPYTKVPDTDEISFLKGDMFIVHNELEDGWMWVTNLRTDEQGLIVEDLVEEVGR,-0.829 ± 0.027
11,RRRLRAILPYTKVPDTDEISFLKGDMFIVHNELEDGWMWVTNLRTDEQGLIVEDLVEEVGR,-0.055 ± 0.021
12,RRRVRAILPYTKGPDTDEISFLKGDMFIVHNELEDGWMWVTNLRTDEQGLIVEDLVEEVGR,-0.04 ± 0.025
13,RRRVRAILPYTKVPDTDEISFLKGDMFIVHNELEDGWMWVVNLRTDEQGLIVEDLVEEVGR,-0.289 ± 0.028
14,RRRVRAILPYTKVPDTDEISFDKGDMFIVHNELEDGWMWVTNLRTDEQGLIVEDLVEEVGR,-0.045 ± 0.045
15,RRRVRAILPYTKVPDTDEISFLKGDMFIVHNEFEDGWMWVTNLRTDEQGLIVEDLVEEVGR,-0.042 ± 0.026
16,RRRVRAILPYTKVPDTDEISFLKGDMFIVHNELEDGWMWVMNLRTDEQGLIVEDLVEEVGR,-0.362 ± 0.064
17,RRRVRAILPYTKVPDQDEISFLKGDMFIVHNELEDGWMWVTNLRTDEQGLIVEDLVEEVGR,-1.03 ± 0.21
18,RRRVRAILPYTKVPDTDEISFLKGDMFIVHNELEDGWMWVTNLRTDEQGLIPEDLVEEVGR,0.04 ± 0.035
19,RRRVRAILPYTKVEDTDEISFLKGDMFIVHNELEDGWMWVTNLRTDEQGLIVEDLVEEVGR,-0.06 ± 0.066
20,RRRVRAILPYTKVPDTDEISFLKGDMFIVNNELEDGWMWVTNLRTDEQGLIVEDLVEEVGR,-0.135 ± 0.028
21,RRRVRAILPYTKVPDTDEISFLKGDMFIVHNELEDGWMWVTNLRTDEQGKIVEDLVEEVGR,0.131 ± 0.063
22,RRRVRAILPYTKVPDTDEISFLKGDMFIVHNELEDGWMWVTNLRTDEQGLIVEQLVEEVGR,0 ± 0.075

row,Variant,abundance fitness
1,RRRVRAIAPYTKVPDTDEISFLKGDMFIVHNELEDGWMWVTNLRTDEQGLIVEDLVEEVGR,0.074 ± 0.034
2,RRRVRAILPYTKVPDTDEISFLKGDMFIVHNELEDGWMWVTNLRTMEQGLIVEDLVEEVGR,-0.014 ± 0.045
3,RRRVRAILPYTKVPDTDEISFLKGDMFIVHNELEDGWMWVTNLRTDEQGLIVEDMVEEVGR,0.005 ± 0.057
4,RRRVRAILPYTKVPDTDEISFLKGDMFIYHNELEDGWMWVTNLRTDEQGLIVEDLVEEVGR,-0.879 ± 0.049
5,RRRVRAILPYTKVPDTDEKSFLKGDMFIVHNELEDGWMWVTNLRTDEQGLIVEDLVEEVGR,-0.934 ± 0.13
6,RRRVRAILPYTKVPDTDEISFLKGDMFIVHNELEDGPMWVTNLRTDEQGLIVEDLVEEVGR,-0.795 ± 0.037
7,RRRVRAILPYTKVPDTDEISFLAGDMFIVHNELEDGWMWVTNLRTDEQGLIVEDLVEEVGR,-0.038 ± 0.031
8,RRRVRAILPYTKVPDTDEISFLKGDMFIVHNELEDGWMWVTNLRTDEQGYIVEDLVEEVGR,-0.05 ± 0.026
9,RRRVRAILPYTKVPDTDEISFLKGDMFIVHNELEDGWMWVTNLRTDEQGLIVEDLVEEIGR,-0.04 ± 0.029
10,RRRVRAILPYTKVKDTDEISFLKGDMFIVHNELEDGWMWVTNLRTDEQGLIVEDLVEEVGR,-0.011 ± 0.061
11,RRRVRAILPYTKVPDTDEISFLKGDMFIVHNELEDGWMWVTNLRTDEQGLIVIDLVEEVGR,-0.052 ± 0.03
12,RRRVRAILPYTKVPDSDEISFLKGDMFIVHNELEDGWMWVTNLRTDEQGLIVEDLVEEVGR,-0.031 ± 0.024
13,RRRVRAILPYTKVPDTDEISFLKGWMFIVHNELEDGWMWVTNLRTDEQGLIVEDLVEEVGR,-1.11 ± 0.17
14,RRRVRAICPYTKVPDTDEISFLKGDMFIVHNELEDGWMWVTNLRTDEQGLIVEDLVEEVGR,-0.052 ± 0.026
15,RRRVRAILPYTKVPDTDEISFLKGDMFIVHNELEDRWMWVTNLRTDEQGLIVEDLVEEVGR,-0.188 ± 0.028
16,RRRVRAILPYTKVPDTDEISFLKGDMFIVHNELEDGWQWVTNLRTDEQGLIVEDLVEEVGR,-0.548 ± 0.17
17,RRRVRAILPYTKVPDTDEISFLKGDMFIVSNELEDGWMWVTNLRTDEQGLIVEDLVEEVGR,-0.318 ± 0.026
18,RRRNRAILPYTKVPDTDEISFLKGDMFIVHNELEDGWMWVTNLRTDEQGLIVEDLVEEVGR,-0.865 ± 0.033
19,RRRVRAILPYTKVPDTDEISILKGDMFIVHNELEDGWMWVTNLRTDEQGLIVEDLVEEVGR,-0.568 ± 0.024
20,RRRVRAILPYTKVPDTDEISFLKGDMFIVHNELEDGWMWVTTLRTDEQGLIVEDLVEEVGR,-0.875 ± 0.064
21,RRRVRAILPYTKVPDTDEISFLKGDMFIVHNELEDGWMWVTNLRTCEQGLIVEDLVEEVGR,-0.002 ± 0.026
22,RRRVRAILPYTKVPDTDEISFLKGDMFIVHNELEDGWMWVTNLRTDEQGLIVEDLVEEVHR,-0.054 ± 0.074

row,Variant,abundance fitness
1,RRRVRAILPYTKVPDTDEISFLKGDMFIVHNELEDGWMWVTNLSTDEQGLIVEDLVEEVGR,-0.207 ± 0.026
2,RRRVRAILPYTKVMDTDEISFLKGDMFIVHNELEDGWMWVTNLRTDEQGLIVEDLVEEVGR,-0.045 ± 0.063
3,RRRVRAILPYTKVPDTDEISFLKGDMFIVHNELNDGWMWVTNLRTDEQGLIVEDLVEEVGR,-0.004 ± 0.032
4,RRRVRAILPYTKVPDTDEINFLKGDMFIVHNELEDGWMWVTNLRTDEQGLIVEDLVEEVGR,-0.14 ± 0.03
5,RRRVRAILPETKVPDTDEISFLKGDMFIVHNELEDGWMWVTNLRTDEQGLIVEDLVEEVGR,-0.838 ± 0.46
6,RRRVRAILQYTKVPDTDEISFLKGDMFIVHNELEDGWMWVTNLRTDEQGLIVEDLVEEVGR,-0.091 ± 0.12
7,RRRVRAILPYTKVPDTDEISFLKGHMFIVHNELEDGWMWVTNLRTDEQGLIVEDLVEEVGR,-0.895 ± 0.059
8,RRRVRAILPYTKVPDTDEISFLKGDMFIVHNELEDGWMWVTNFRTDEQGLIVEDLVEEVGR,-0.425 ± 0.029
9,RRRVRAILPYTHVPDTDEISFLKGDMFIVHNELEDGWMWVTNLRTDEQGLIVEDLVEEVGR,-0.184 ± 0.033
10,RRRVRAILPYTKVPDTDEISFLKGDMFIVHNNLEDGWMWVTNLRTDEQGLIVEDLVEEVGR,-0.07 ± 0.03
11,RRRVRAILPYTKVPDTDEISFLKGDMFIVHNELEDGWMWVTNLRTDEQGLIVEDLVEEVYR,-0.058 ± 0.1
12,RRRVRAILPYTKVPDTDEISFLKGDMFIVHNELEDGWMWVTELRTDEQGLIVEDLVEEVGR,-0.698 ± 0.11
13,RRRVRAILPYTKVPDTDEISFLKGDMFIVHNELEDGWMWVTNLRTDEQGLCVEDLVEEVGR,-0.401 ± 0.03
14,RRRVRAILPYTKVPDTDEISFLKGDMFIVHNELEDGWMWVTNLRFDEQGLIVEDLVEEVGR,-0.796 ± 0.042
15,RRRVRAILPYTKVPDTDEISFLKGDMFIVHMELEDGWMWVTNLRTDEQGLIVEDLVEEVGR,-0.044 ± 0.051
16,RRRVRADLPYTKVPDTDEISFLKGDMFIVHNELEDGWMWVTNLRTDEQGLIVEDLVEEVGR,-1.01 ± 0.08
17,RRRVRAILPTTKVPDTDEISFLKGDMFIVHNELEDGWMWVTNLRTDEQGLIVEDLVEEVGR,-0.999 ± 0.098
18,RRRVRAILPYTKVPDTDEISMLKGDMFIVHNELEDGWMWVTNLRTDEQGLIVEDLVEEVGR,-0.538 ± 0.039
19,RRRVRAILPYTKVPDTDEISFLKGDMFIVHNELEDGWMWQTNLRTDEQGLIVEDLVEEVGR,-1.01 ± 0.21
20,RRRVRAILPYTKVPDTDEISFLKGDMFIVHNELEDGWMWVTNLRTDEQGLIVEDLVKEVGR,-0.471 ± 0.12
21,RRRVRTILPYTKVPDTDEISFLKGDMFIVHNELEDGWMWVTNLRTDEQGLIVEDLVEEVGR,-0.84 ± 0.034
